# B1: CBMX: Carbohydrate-binding module of Pseudoplectania nigrella GH61 (positions 34-174 of SEQ ID NO:2), expressed in Aspergillus oryzae, purified on Avicel (protein, listed as Pseudoplectania nigrella)
# chain: SSGTSNDKAVASSSIAAVDPVTSSVVASVQVPNFTATDVPTFTATDIPTFTATDVPIFTKKPQQPSTLLTRTRTHASVSFVAKPSAFIPKPSASTIPSKPKTPEEVNKCLDAVNACITQAQSSIGGVVNFEPCESQRALCY
# What was measured:
# [1] = Competition binding assay, references without soluble carbohydrate
# Protocol: (§1) Affinity of CBMX for a number of soluble carbohydrates was tested in a competition assay by mixing 100 μl CBMX with both Avicel® (400 μl 50 mg/ml in 20 mM Tris, pH 7.5) and the soluble carbohydrate (dissolved in 500 μl 20 mM Tris, pH 7.5). As references, samples without CBMX or soluble carbohydrate added were used. If CBMX has affinity for the soluble carbohydrate it should be able to keep CBMX in solution which can be measured as increase in absorbance at 280 nm compared to sample without soluble carbohydrate added. After 4 hours incubation at room temperature with agitation, samples were centrifuged and absorbance at 280 nm was read using 200 μl supernatant in the well of a microtiter UV plate. Tested soluble carbohydrates were barley β-glucan (Megazyme, low viscosity), lichenan (Megazyme, Icelandic moss), CMC (carboxymethyl cellulose 7LF, Hercules, USA), Xyloglucan (Megazyme, amyloid, from tamarind seed), lupin galactan (Megazyme) and Locust bean gum (Sigma, G-0753).
# [2] = Competition binding assay with CBMX, Avicel and soluble carbohydrate; conditions: for Difference in A280 between samples with and without CBMX added: Avicel 20 mg/ml, 4 hours room temperature; for Share of CBMX kept in solution by the soluble carbohydrate (in words): competition with Avicel
# Protocol: as §1
# [3] = Binding of CBMX to Avicel (A280 of supernatant after incubation and centrifugation); conditions: shorter incubation time (15 min to 1 hour) compared with 4 hours
# [4] = as above; conditions: for A280: Absorbance at 280 nm of 200 μl supernatant, absorbance of buffer and Avicel subtracted: 20 mM Tris pH 7.5, 4 hours room temperature
# Protocol: The carbohydrate-binding domain with affinity for Avicel® and purified as described in Example 2 (CBMX) was studied further. 50 μl purified CBMX was mixed with 500 μl 20 mM Tris, pH 7.5 containing varying amount of Avicel® (0-100 mg/ml) in an Eppendorf tube. After 4 hours incubation at room temperature with agitation, the samples were centrifuged. 200 μl supernatant was transferred to the well of a microtiter plate (Costar, UV plate) and absorbance read at 280 nm on a microtiter plate reader (SpectraMax® Plus, Molecular Devices).
# [5] = Binding of CBMX to PASC (A280 of supernatant); conditions: for A280: Absorbance at 280 nm of 200 μl supernatant, absorbance of buffer subtracted: 20 mM Tris pH 7.5, 4 hours room temperature
# Protocol: A similar binding study was performed with PASC (Phosphoric Acid Swollen Cellulose: To 5 g Avicel® moisted with water 150 ml ice-cold 85 ortho-phosphoric acid is added. After 1 hour stirring on ice bath, 500 ml cold acetone is added. The suspension is filtered and washed, first with acetone and then with water). 50 μl purified CBMX was mixed with 500 μl 20 mM Tris, pH 7.5 containing varying amount of PASO (0-10 mg/ml) in an Eppendorf tube. Samples were incubated 4 hours at room temperature with agitation. After centrifugation, 200 μl supernatant was transferred to the well of a microtiter plate and absorbance read at 280 nm.
molecule,measurement,setting,value
B1,Difference in A280 between samples with and without CBMX added,"[1]; None - Only Avicel (20 mg/ml) and CBMX, no soluble carbohydrate",0.018
same,Difference in A280 between samples with and without CBMX added,"[1]; None - Only CBMX, no Avicel",0.108
same,Difference in A280 between samples with and without CBMX added,[2]; CMC 25 mg/ml,0.129
same,Share of CBMX kept in solution by the soluble carbohydrate (in words),[2]; CMC,almost all
same,Difference in A280 between samples with and without CBMX added,[2]; Galactan 20 mg/ml,0.043
same,Difference in A280 between samples with and without CBMX added,[2]; Lichenan 20 mg/ml,0.025
same,Difference in A280 between samples with and without CBMX added,[2]; Locust bean gum 25 mg/ml,0.087
same,Difference in A280 between samples with and without CBMX added,[2]; Xyloglucan 11 mg/ml,0.052
same,Difference in A280 between samples with and without CBMX added,[2]; beta-Glucan 20 mg/ml,0.100
same,Share of CBMX kept in solution by the soluble carbohydrate (in words),[2]; beta-glucan,almost all
same,Affinity of CBMX for the soluble carbohydrate (in words),[2]; galactan,to some extent
same,Share of CBMX kept in solution by the soluble carbohydrate (in words),[2]; galactan,about half
same,Affinity of CBMX for the soluble carbohydrate (in words),[2]; lichenan,no affinity
same,Share of CBMX kept in solution by the soluble carbohydrate (in words),[2]; lichenan,does not result in any increase
same,Share of CBMX kept in solution by the soluble carbohydrate (in words),[2]; locust bean gum,the majority
same,Affinity of CBMX for the soluble carbohydrate (in words),[2]; xyloglucan,to some extent
same,Share of CBMX kept in solution by the soluble carbohydrate (in words),[2]; xyloglucan,about half
same,Completeness of binding to Avicel (in words),[3],less complete binding
same,"A280: Absorbance at 280 nm of 200 μl supernatant, absorbance of buffer and Avicel subtracted",[4]; Avicel 0.0 mg/ml (CBMX alone),0.0768
same,"A280: Absorbance at 280 nm of 200 μl supernatant, absorbance of buffer and Avicel subtracted",[4]; Avicel 0.391 mg/ml,0.0777
same,"A280: Absorbance at 280 nm of 200 μl supernatant, absorbance of buffer and Avicel subtracted",[4]; Avicel 0.781 mg/ml,0.0808
same,"A280: Absorbance at 280 nm of 200 μl supernatant, absorbance of buffer and Avicel subtracted",[4]; Avicel 1.563 mg/ml,0.0799
same,"A280: Absorbance at 280 nm of 200 μl supernatant, absorbance of buffer and Avicel subtracted",[4]; Avicel 3.125 mg/ml,0.0729
same,"A280: Absorbance at 280 nm of 200 μl supernatant, absorbance of buffer and Avicel subtracted",[4]; Avicel 6.25 mg/ml,0.0637
same,"A280: Absorbance at 280 nm of 200 μl supernatant, absorbance of buffer and Avicel subtracted",[4]; Avicel 12.5 mg/ml,0.0540
same,"A280: Absorbance at 280 nm of 200 μl supernatant, absorbance of buffer and Avicel subtracted",[4]; Avicel 25 mg/ml,0.0326
same,"A280: Absorbance at 280 nm of 200 μl supernatant, absorbance of buffer and Avicel subtracted",[4]; Avicel 50 mg/ml,0.0185
same,"A280: Absorbance at 280 nm of 200 μl supernatant, absorbance of buffer and Avicel subtracted",[4]; Avicel 100 mg/ml,0.0095
same,Share of the protein that binds to Avicel (in words),"[4]; highest concentrations of Avicel, 4 hours incubation",large majority of the protein binds
same,Affinity for Avicel (in words),[4]; summary statement,shown to have affinity
same,"A280: Absorbance at 280 nm of 200 μl supernatant, absorbance of buffer subtracted",[5]; PASC 0.0 mg/ml (CBMX alone),0.0753
same,"A280: Absorbance at 280 nm of 200 μl supernatant, absorbance of buffer subtracted",[5]; PASC 0.625 mg/ml,0.0682
same,"A280: Absorbance at 280 nm of 200 μl supernatant, absorbance of buffer subtracted",[5]; PASC 1.25 mg/ml,0.0710
same,"A280: Absorbance at 280 nm of 200 μl supernatant, absorbance of buffer subtracted",[5]; PASC 2.5 mg/ml,0.0618
same,"A280: Absorbance at 280 nm of 200 μl supernatant, absorbance of buffer subtracted",[5]; PASC 5 mg/ml,0.0512
same,"A280: Absorbance at 280 nm of 200 μl supernatant, absorbance of buffer subtracted",[5]; PASC 10 mg/ml,0.0471
same,Affinity for PASC (in words),[5]; increasing amount of PASC reduces absorbance of CBMX in the supernatant,has affinity

# From US20150024465A1, “Carbohydrate-Binding Modules of a New Family” (Novozymes A/S, priority 2003, published 2015)
